# Reference: the supplement of paper PMC9112550, “Optimization of the antimicrobial peptide Bac7 by deep mutational scanning” (BMC Biology, 2022)
# Test system: Escherichia coli TOP10
# Test: shrunken log2 fold change of peptide-encoding DNA abundance (4.5 h post-induction vs induction); higher = less antimicrobial activity (less host growth inhibition)
# Conditions: time post-induction: 4.5 h; library: site-saturation at positions 5, 18, 19, 20
# 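Also: peptides expressed intracellularly from a pBAD plasmid library in pooled LB shake-flask culture, induced with 0.3% L-arabinose, DNA abundance read by NGS, three biological replicates, DESeq2 with apeglm shrinkage.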
row,Sequence,shrunken log2 fold change
1,RRIRNRPPRLPRPRPRPCWIPRP,-0.00906
2,RRIRNRPPRLPRPRPRPCWYPRP,-0.0865
3,RRIRNRPPRLPRPRPRPCYHPRP,-0.0967
4,RRIRNRPPRLPRPRPRPCYMPRP,0.0787
5,RRIRNRPPRLPRPRPRPDAPPRP,0.185
6,RRIRNRPPRLPRPRPRPDCEPRP,0.0108
7,RRIRNRPPRLPRPRPRPDCGPRP,0.0246
8,RRIRNRPPRLPRPRPRPDCHPRP,0.081
9,RRIRNRPPRLPRPRPRPDDCPRP,-0.108
10,RRIRNRPPRLPRPRPRPDDWPRP,0.221
11,RRIRNRPPRLPRPRPRPDEEPRP,0.509
12,RRIRNRPPRLPRPRPRPDEKPRP,-0.133
13,RRIRNRPPRLPRPRPRPDETPRP,-0.00208
14,RRIRNRPPRLPRPRPRPDFTPRP,0.0959
15,RRIRNRPPRLPRPRPRPDGEPRP,-0.00776
16,RRIRNRPPRLPRPRPRPDHRPRP,-0.0124
17,RRIRNRPPRLPRPRPRPDIFPRP,-0.172
18,RRIRNRPPRLPRPRPRPDITPRP,-0.0553
19,RRIRNRPPRLPRPRPRPDMTPRP,-0.287
20,RRIRNRPPRLPRPRPRPDMVPRP,0.00433
21,RRIRNRPPRLPRPRPRPDNMPRP,-0.104
22,RRIRNRPPRLPRPRPRPDNNPRP,-0.187
23,RRIRNRPPRLPRPRPRPDPDPRP,0.0692
24,RRIRNRPPRLPRPRPRPDPQPRP,0.0854
25,RRIRNRPPRLPRPRPRPDQAPRP,-0.01

row,Sequence,shrunken log2 fold change
1,RRIRNRPPRLPRPRPRPDSAPRP,-0.126
2,RRIRNRPPRLPRPRPRPDSMPRP,-0.0386
3,RRIRNRPPRLPRPRPRPDTDPRP,0.0251
4,RRIRNRPPRLPRPRPRPDTTPRP,-0.129
5,RRIRNRPPRLPRPRPRPDVMPRP,-0.275
6,RRIRNRPPRLPRPRPRPDVQPRP,-0.13
7,RRIRNRPPRLPRPRPRPDWCPRP,0.0226
8,RRIRNRPPRLPRPRPRPDWIPRP,0.0186
9,RRIRNRPPRLPRPRPRPDWRPRP,-0.158
10,RRIRNRPPRLPRPRPRPDYDPRP,-0.0133
11,RRIRNRPPRLPRPRPRPDYIPRP,-0.104
12,RRIRNRPPRLPRPRPRPECEPRP,-0.0156
13,RRIRNRPPRLPRPRPRPECFPRP,0.0864
14,RRIRNRPPRLPRPRPRPECTPRP,0.00282
15,RRIRNRPPRLPRPRPRPECYPRP,-0.329
16,RRIRNRPPRLPRPRPRPEDEPRP,-0.0168
17,RRIRNRPPRLPRPRPRPEDRPRP,0.0787
18,RRIRNRPPRLPRPRPRPEEPPRP,0.0512
19,RRIRNRPPRLPRPRPRPEFHPRP,-0.0541
20,RRIRNRPPRLPRPRPRPEFYPRP,-0.243
21,RRIRNRPPRLPRPRPRPEGIPRP,0.0204
22,RRIRNRPPRLPRPRPRPEGSPRP,-0.0385
23,RRIRNRPPRLPRPRPRPEGTPRP,0.105
24,RRIRNRPPRLPRPRPRPEHEPRP,0.127
25,RRIRNRPPRLPRPRPRPEHMPRP,-0.0791

row,Sequence,shrunken log2 fold change
1,RRIRNRPPRLPRPRPRPEHQPRP,-0.029
2,RRIRNRPPRLPRPRPRPEIFPRP,-0.0153
3,RRIRNRPPRLPRPRPRPEIMPRP,0.0538
4,RRIRNRPPRLPRPRPRPEIQPRP,-0.0724
5,RRIRNRPPRLPRPRPRPELHPRP,0.102
6,RRIRNRPPRLPRPRPRPELMPRP,0.232
7,RRIRNRPPRLPRPRPRPEMPPRP,-0.0738
8,RRIRNRPPRLPRPRPRPEMSPRP,-0.0389
9,RRIRNRPPRLPRPRPRPENGPRP,-0.0225
10,RRIRNRPPRLPRPRPRPENRPRP,-0.0205
11,RRIRNRPPRLPRPRPRPEPKPRP,0.0124
12,RRIRNRPPRLPRPRPRPEPQPRP,1
13,RRIRNRPPRLPRPRPRPEPTPRP,0.587
14,RRIRNRPPRLPRPRPRPEPYPRP,0.0346
15,RRIRNRPPRLPRPRPRPERNPRP,-0.0623
16,RRIRNRPPRLPRPRPRPESIPRP,-0.24
17,RRIRNRPPRLPRPRPRPESKPRP,-0.0938
18,RRIRNRPPRLPRPRPRPESPPRP,0.0142
19,RRIRNRPPRLPRPRPRPESVPRP,-0.145
20,RRIRNRPPRLPRPRPRPETEPRP,-0.0793
21,RRIRNRPPRLPRPRPRPEWFPRP,-0.00884
22,RRIRNRPPRLPRPRPRPEYDPRP,-0.0369
23,RRIRNRPPRLPRPRPRPFAGPRP,0.0411
24,RRIRNRPPRLPRPRPRPFAWPRP,0.0341
25,RRIRNRPPRLPRPRPRPFCWPRP,0.0104

row,Sequence,shrunken log2 fold change
1,RRIRNRPPRLPRPRPRPFDAPRP,-0.106
2,RRIRNRPPRLPRPRPRPFFMPRP,0.0606
3,RRIRNRPPRLPRPRPRPFGNPRP,0.0247
4,RRIRNRPPRLPRPRPRPFHLPRP,-0.147
5,RRIRNRPPRLPRPRPRPFIEPRP,-0.412
6,RRIRNRPPRLPRPRPRPFIMPRP,-0.889
7,RRIRNRPPRLPRPRPRPFKCPRP,-0.0598
8,RRIRNRPPRLPRPRPRPFKHPRP,-0.39
9,RRIRNRPPRLPRPRPRPFKPPRP,-0.239
10,RRIRNRPPRLPRPRPRPFLPPRP,-0.354
11,RRIRNRPPRLPRPRPRPFMCPRP,-0.202
12,RRIRNRPPRLPRPRPRPFMHPRP,-0.142
13,RRIRNRPPRLPRPRPRPFMMPRP,-0.181
14,RRIRNRPPRLPRPRPRPFQIPRP,-0.121
15,RRIRNRPPRLPRPRPRPFQKPRP,-0.185
16,RRIRNRPPRLPRPRPRPFQPPRP,-0.0306
17,RRIRNRPPRLPRPRPRPFQQPRP,-0.00931
18,RRIRNRPPRLPRPRPRPFRHPRP,-0.727
19,RRIRNRPPRLPRPRPRPFSAPRP,-0.264
20,RRIRNRPPRLPRPRPRPFVTPRP,-0.274
21,RRIRNRPPRLPRPRPRPFWDPRP,-0.0775
22,RRIRNRPPRLPRPRPRPFWMPRP,-0.112
23,RRIRNRPPRLPRPRPRPFYFPRP,-0.718
24,RRIRNRPPRLPRPRPRPGAEPRP,0.374
25,RRIRNRPPRLPRPRPRPGATPRP,0.124

row,Sequence,shrunken log2 fold change
1,RRIRNRPPRLPRPRPRPGDCPRP,0.404
2,RRIRNRPPRLPRPRPRPGDLPRP,0.107
3,RRIRNRPPRLPRPRPRPGEWPRP,0.00667
4,RRIRNRPPRLPRPRPRPGEYPRP,0.0536
5,RRIRNRPPRLPRPRPRPGFLPRP,-0.105
6,RRIRNRPPRLPRPRPRPGHDPRP,0.0277
7,RRIRNRPPRLPRPRPRPGHTPRP,-0.175
8,RRIRNRPPRLPRPRPRPGIEPRP,-0.0795
9,RRIRNRPPRLPRPRPRPGKFPRP,-0.034
10,RRIRNRPPRLPRPRPRPGKHPRP,-0.0999
11,RRIRNRPPRLPRPRPRPGKSPRP,-0.0101
12,RRIRNRPPRLPRPRPRPGLWPRP,0.737
13,RRIRNRPPRLPRPRPRPGPAPRP,0.627
14,RRIRNRPPRLPRPRPRPGPQPRP,0.0395
15,RRIRNRPPRLPRPRPRPGQWPRP,0.244
16,RRIRNRPPRLPRPRPRPGRDPRP,0.366
17,RRIRNRPPRLPRPRPRPGRMPRP,0.0895
18,RRIRNRPPRLPRPRPRPGSAPRP,0.025
19,RRIRNRPPRLPRPRPRPGSGPRP,0.179
20,RRIRNRPPRLPRPRPRPGTYPRP,-0.0105
21,RRIRNRPPRLPRPRPRPGVTPRP,0.0223
22,RRIRNRPPRLPRPRPRPGYFPRP,-0.541
23,RRIRNRPPRLPRPRPRPGYYPRP,-0.851
24,RRIRNRPPRLPRPRPRPHACPRP,0.0169
25,RRIRNRPPRLPRPRPRPHAMPRP,-0.316

row,Sequence,shrunken log2 fold change
1,RRIRNRPPRLPRPRPRPHAVPRP,0.00516
2,RRIRNRPPRLPRPRPRPHCNPRP,-0.196
3,RRIRNRPPRLPRPRPRPHCYPRP,0.0691
4,RRIRNRPPRLPRPRPRPHDCPRP,-0.124
5,RRIRNRPPRLPRPRPRPHDLPRP,0.0667
6,RRIRNRPPRLPRPRPRPHDTPRP,-0.267
7,RRIRNRPPRLPRPRPRPHHSPRP,0.0657
8,RRIRNRPPRLPRPRPRPHHYPRP,-0.619
9,RRIRNRPPRLPRPRPRPHIPPRP,-0.793
10,RRIRNRPPRLPRPRPRPHITPRP,-0.399
11,RRIRNRPPRLPRPRPRPHKCPRP,-0.0755
12,RRIRNRPPRLPRPRPRPHKDPRP,-0.737
13,RRIRNRPPRLPRPRPRPHLLPRP,-1.08
14,RRIRNRPPRLPRPRPRPHMGPRP,-0.133
15,RRIRNRPPRLPRPRPRPHMNPRP,-0.572
16,RRIRNRPPRLPRPRPRPHNPPRP,-0.143
17,RRIRNRPPRLPRPRPRPHNYPRP,-0.968
18,RRIRNRPPRLPRPRPRPHPLPRP,-0.122
19,RRIRNRPPRLPRPRPRPHRHPRP,-0.222
20,RRIRNRPPRLPRPRPRPHSCPRP,-0.00198
21,RRIRNRPPRLPRPRPRPHSNPRP,-0.341
22,RRIRNRPPRLPRPRPRPHTMPRP,-0.298
23,RRIRNRPPRLPRPRPRPHWLPRP,-0.101
24,RRIRNRPPRLPRPRPRPHWPPRP,0.0957
25,RRIRNRPPRLPRPRPRPHYLPRP,-0.218
